# From patent publication US20090111753A1, “Nogo-A Polypeptide Fragments, Variant Nogo Receptor-1 Polypeptides, and Uses Thereof” (Yale University, priority 2004, published 2009)
# T1: AP-Nogo66 (Homo sapiens, UniProt Q9NQC3)
# T1 construct: made in house; NgR mutants: COS-7
# T1 sequence (Q9NQC3 1055-1120 limits assumed): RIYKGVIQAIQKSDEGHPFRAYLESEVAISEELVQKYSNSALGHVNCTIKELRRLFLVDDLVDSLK
# T2: AP-Lingo-1 (Homo sapiens, UniProt Q96FE5)
# T2 construct: made in house; NgR mutants: COS-7
# T2 sequence (Q96FE5 40-538 limits assumed): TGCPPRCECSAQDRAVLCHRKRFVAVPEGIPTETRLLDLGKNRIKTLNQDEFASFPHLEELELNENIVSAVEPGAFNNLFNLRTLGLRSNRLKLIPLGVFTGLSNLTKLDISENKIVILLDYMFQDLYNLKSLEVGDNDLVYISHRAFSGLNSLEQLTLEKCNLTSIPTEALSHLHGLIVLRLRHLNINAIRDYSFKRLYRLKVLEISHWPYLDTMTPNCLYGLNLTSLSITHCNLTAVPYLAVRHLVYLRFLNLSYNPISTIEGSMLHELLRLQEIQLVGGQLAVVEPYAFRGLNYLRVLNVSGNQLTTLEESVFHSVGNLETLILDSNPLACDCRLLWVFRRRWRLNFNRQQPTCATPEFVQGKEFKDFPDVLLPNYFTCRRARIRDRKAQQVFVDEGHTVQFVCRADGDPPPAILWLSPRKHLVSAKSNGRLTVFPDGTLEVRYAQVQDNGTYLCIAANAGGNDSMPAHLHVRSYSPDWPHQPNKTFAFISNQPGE
# T3: AP-B4C (Homo sapiens, UniProt Q9NQC3)
# T3 construct: a.a; 950-1018 (AmNg B4C); made in house; host or cells: AP ligand: HEK293T conditioned medium; NgR mutants: COS-7
# T3 sequence (Q9NQC3 950-1018): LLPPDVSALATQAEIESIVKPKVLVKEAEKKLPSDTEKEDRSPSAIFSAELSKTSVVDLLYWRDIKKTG
# How the values were obtained:
# [1] = system: AP-MAG; test: Binding of AP-MAG to COS-7 cells expressing NgR mutants; design: key: ++: WT level; +: weaker than wild type; trace binding; −: no binding; details: AP-MAG 30 nM; level of binding compared to wild type NgR
# Experimental: (§1) FIG. 4A. […] Binding of AP or AP fused NgR ligands to COS-7 cells expressing different NgR mutants as indicated. The concentrations of ligands applied were: AP, 30 nM; AP-Ng66, 5 nM; AP-Ng33, 10 nM; AP-B4C, 10 nM; AP-B4C66, 0.5 nM; AP-Lingo-1, 10 nM; AP-OMGP, 10 nM; AP-MAG, 30 nM. These concentrations are close to the binding Kd of these proteins to NgR so that any […] is reflected linearly in staining.
# (§2) FIG. 4B. AP binding of NgR ligands to NgR mutants expressed as percentage of wild type NgR. AP after incubation with AP fused ligands, AP bound to COS-7 cells expressing NgR or NgR mutants were stained and measured.
# (§3) To better define how multiple ligands bind to the NgR protein, we examined a series of Ala-substituted NgR for ligand binding activity. NgR mutagenesis was done using the Quick Change Multisite Directed Mutagenesis Kit (Stratagene catalog #200514). Human NgR1 was used as a template. Ala substitutions were generated for each of the charged residues predicted to be solvent accessible at the surface of the ligand binding domain of NgR (Barton, W. A., et al., Embo J. 22:3291-3302 (2003); He, X. L., et al., Neuron 38:177-185 (2003)). We generated mutants in which 1-8 surface residues localized within 5 A of one another were Ala-substituted. Because of the coiling nature of the LRR structure, as residues juxtaposed on the protein surface are commonly separated by approximately 25 residues in the primary structure. In addition to mutations in specific charged surface patches, other mutations were targeted to glycosylation sites and to regions predicted to be involved in ligand binding based on the NgR structure (Barton, W. A., et al., Embo J. 22:3291-3302 (2003); He, X. L., et al., Neuron 38:177-185 (2003)). In addition, a variant corresponding to a human polymorphism was examined (D259N). None of the mutations altered the Leu residues that define the LRR structure itself or the Cys residues critical in the amino and carboxyl terminal capping domains. The vast majority of such Ala surface substitution mutants were expressed as immunoreactive polypeptides with a molecular weight and an expression level indistinguishable from wild type NgR (FIG. 4C and data not shown).
# (§4) This collection of 74 individual NgR mutants was interrogated for AP-Nogo-66, AP-Amino-Nogo-B4C, AP-MAG, AP-OMgp, and AP-Lingo-1 binding. AP-Nogo66, AP-MAG, AP-OMGP and AP-Lingo-1 constructs are described elsewhere (Fournier, A. E., et al., Nature 409:341-346 (2001); Liu, B. P., et al., Science 297:1190-1193 (2002); Mi, S., et al., Nat. Neurosci. 7:221-228 (2004); Wang, K. C., et al., Nature 417:941-944 (2002b)). The properties of the NgR mutants fell into one of three major categories (Table II and FIG. 5). A number of Ala substituted NgR polypeptides bound all of the ligands at wild type levels. […] In addition, a significant extent of the concave surface is dispensable for ligand binding.
# (§5) Binding of Alanine substituted NgR mutants to NgR ligands were compared to wild type NgR and the levels of binding were categorized as ++ (WT level), + (weaker than wild type), tr (trace binding), − (no binding), N/A (not determined). NgR mutant proteins were also subjected to SDS-PAGE and probed by anti-NgR antibodies. Mutants with expression level similar to WT NgR were labeled as “y”.
# [2] = biological target: T1, AP-Nogo66; test: Binding of AP-Nogo66 to COS-7 cells expressing NgR mutants; design: key: ++: WT level; +: weaker than wild type; trace binding; −: no binding; details: AP-Ng66 5 nM; level of binding compared to wild type NgR
# Experimental: as §1, §2, §3, §4, §5
# [3] = system: AP-B4C66; test: Binding of AP-B4C66 to COS-7 cells expressing NgR mutants; design: key: ++: WT level; +: weaker than wild type; trace binding; −: no binding; details: AP-B4C66 0.5 nM; level of binding compared to wild type NgR
# Experimental: as §1, §2, §3, §4, §5
# [4] = system: AP-OMgp; test: Binding of AP-OMgp to COS-7 cells expressing NgR mutants; design: key: ++: WT level; +: weaker than wild type; trace binding; −: no binding; details: AP-OMGP 10 nM; level of binding compared to wild type NgR
# Experimental: as §1, §2, §3, §4, §5
# [5] = biological target: T2, AP-Lingo-1; test: Binding of AP-Lingo-1 to COS-7 cells expressing NgR mutants; design: key: ++: WT level; +: weaker than wild type; trace binding; −: no binding; details: AP-Lingo-1 10 nM; level of binding compared to wild type NgR
# Experimental: as §1, §2, §3, §4, §5
# [6] = system: NgR ligands; test: Binding of alanine substituted NgR mutants to NgR ligands, summary categories; details: AP-Nogo66, AP-B4C, AP-B4C66, AP-Lingo-1, AP-OMgp and AP-MAG; compared to wild type NgR
# Source text: as §3, §4
# Alanine substituted NgR mutants were tested for their binding to AP-Nogo66, AP-B4C, AP-B4C66, AP-Lingo-1, AP-OMgp and AP-MAG and they fall into three categories: (1) Mutants that lose binding to all NgR ligands. (2) Mutants that still maintain binding to all NgR ligands. […] The D259N mutant is an asparagine substitution to mimic a human polymorphism.
# [7] = biological target: T3, AP-B4C; test: Binding of AP-B4C to COS-7 cells expressing NgR mutants; design: key: ++: WT level; +: weaker than wild type; trace binding; −: no binding; details: AP-B4C 10 nM; level of binding compared to wild type NgR
# Experimental: as §1, §2, §3, §4, §5
Ng66 [2],Lingo-1 [5],ligand binding category of NgR mutant (Table II) [6],B4C [7],Molecule,MAG [1],B4C-66 [3],OMgp [4]
++,++,Differential binding,++,"256, 259: human NgR1 mutant, listed residues mutated to alanine (protein) CPGACVCYNEPKVTTSCPQQGLQAVPVGIPAASQRIFLHGNRISHVPAASFRACRNLTILWLHSNVLARIDAAAFTGLALLEQLDLSDNAQLRSVDPATFHGLGRLHTLHLDRCGLQELGPGLFRGLAALQYLYLQDNALQALPDDTFRDLGNLTHLFLHGNRISSVPERAFRGLHSLDRLLLHQNRVAHVHPHAFRDLGRLMTLYLFANNLSALPTEALAPLRALQYLALNANPWVCDCRARPLWAWLQKFRGSSSEVPCSLPQRLAGRDLKRLAANDLQGCAVATGPYHPIWTGRATDEEPLGLPKCCQPDAADKASVLEPGRPASAGNALKGRVPPGDSPPGNGSGPRHINDSPFGTLPGSAEPPLTAVRPEGSEPPGFPTSGPRRRPGCSRKNRTRSHCRLGQAGSGGGGTGDSEGSGALPSLTCSLTPLGLALVLWTVLGPC",−,++,+
+,−,Differential binding,+,"95, 97, 122: human NgR1 mutant, listed residues mutated to alanine (protein) CPGACVCYNEPKVTTSCPQQGLQAVPVGIPAASQRIFLHGNRISHVPAASFRACRNLTILWLHSNVLAAIAAAAFTGLALLEQLDLSDNAQLRSVAPATFHGLGRLHTLHLDRCGLQELGPGLFRGLAALQYLYLQDNALQALPDDTFRDLGNLTHLFLHGNRISSVPERAFRGLHSLDRLLLHQNRVAHVHPHAFRDLGRLMTLYLFANNLSALPTEALAPLRALQYLRLNDNPWVCDCRARPLWAWLQKFRGSSSEVPCSLPQRLAGRDLKRLAANDLQGCAVATGPYHPIWTGRATDEEPLGLPKCCQPDAADKASVLEPGRPASAGNALKGRVPPGDSPPGNGSGPRHINDSPFGTLPGSAEPPLTAVRPEGSEPPGFPTSGPRRRPGCSRKNRTRSHCRLGQAGSGGGGTGDSEGSGALPSLTCSLTPLGLALVLWTVLGPC",tr,+,tr
++,tr,Differential binding,++,"78, 81: human NgR1 mutant, listed residues mutated to alanine (protein) CPGACVCYNEPKVTTSCPQQGLQAVPVGIPAASQRIFLHGNRISHVPAASFAACANLTILWLHSNVLARIDAAAFTGLALLEQLDLSDNAQLRSVDPATFHGLGRLHTLHLDRCGLQELGPGLFRGLAALQYLYLQDNALQALPDDTFRDLGNLTHLFLHGNRISSVPERAFRGLHSLDRLLLHQNRVAHVHPHAFRDLGRLMTLYLFANNLSALPTEALAPLRALQYLRLNDNPWVCDCRARPLWAWLQKFRGSSSEVPCSLPQRLAGRDLKRLAANDLQGCAVATGPYHPIWTGRATDEEPLGLPKCCQPDAADKASVLEPGRPASAGNALKGRVPPGDSPPGNGSGPRHINDSPFGTLPGSAEPPLTAVRPEGSEPPGFPTSGPRRRPGCSRKNRTRSHCRLGQAGSGGGGTGDSEGSGALPSLTCSLTPLGLALVLWTVLGPC",,++,++
+,tr,Differential binding,++,"36, 38, 61: human NgR1 mutant, listed residues mutated to alanine (protein) CPGACVCYNAPAVTTSCPQQGLQAVPVGIPAASQAIFLHGNRISHVPAASFRACRNLTILWLHSNVLARIDAAAFTGLALLEQLDLSDNAQLRSVDPATFHGLGRLHTLHLDRCGLQELGPGLFRGLAALQYLYLQDNALQALPDDTFRDLGNLTHLFLHGNRISSVPERAFRGLHSLDRLLLHQNRVAHVHPHAFRDLGRLMTLYLFANNLSALPTEALAPLRALQYLRLNDNPWVCDCRARPLWAWLQKFRGSSSEVPCSLPQRLAGRDLKRLAANDLQGCAVATGPYHPIWTGRATDEEPLGLPKCCQPDAADKASVLEPGRPASAGNALKGRVPPGDSPPGNGSGPRHINDSPFGTLPGSAEPPLTAVRPEGSEPPGFPTSGPRRRPGCSRKNRTRSHCRLGQAGSGGGGTGDSEGSGALPSLTCSLTPLGLALVLWTVLGPC",tr,++,+
++,++,,++,"WT: wild type human NgR1 expressed in COS-7 cells (protein, UniProt Q9BZR6 27-447, looked up) Reticulon-4 receptor: CPGACVCYNEPKVTTSCPQQGLQAVPVGIPAASQRIFLHGNRISHVPAASFRACRNLTILWLHSNVLARIDAAAFTGLALLEQLDLSDNAQLRSVDPATFHGLGRLHTLHLDRCGLQELGPGLFRGLAALQYLYLQDNALQALPDDTFRDLGNLTHLFLHGNRISSVPERAFRGLHSLDRLLLHQNRVAHVHPHAFRDLGRLMTLYLFANNLSALPTEALAPLRALQYLRLNDNPWVCDCRARPLWAWLQKFRGSSSEVPCSLPQRLAGRDLKRLAANDLQGCAVATGPYHPIWTGRATDEEPLGLPKCCQPDAADKASVLEPGRPASAGNALKGRVPPGDSPPGNGSGPRHINDSPFGTLPGSAEPPLTAVRPEGSEPPGFPTSGPRRRPGCSRKNRTRSHCRLGQAGSGGGGTGDSEGS",++,++,++
